Test results: paper PMC4329827 (Meta Gene, 2015)

Molecular target: T1, MOCS2B wild-type, large subunit of MPT synthase (human, UniProt O96007 1-188)
T1 sequence (looked up): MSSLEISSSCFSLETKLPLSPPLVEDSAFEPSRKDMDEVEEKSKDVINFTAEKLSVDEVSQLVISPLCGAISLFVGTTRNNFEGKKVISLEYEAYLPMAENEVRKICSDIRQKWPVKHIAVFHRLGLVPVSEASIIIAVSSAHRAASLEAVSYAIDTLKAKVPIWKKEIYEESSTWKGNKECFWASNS
Assay: ITC

B1: MOCS2A, small subunit of MPT synthase (activated, thiocarboxylated) (natural protein, human, UniProt O96033 1-88, looked up)
chain: MVPLCQVEVLYFAKSAEITGVRSETISVPQEIKALQLWKEIETRHPGLADVRNQIIFAVRQEYVELGDQLLVLQPGDEIAVIPPISGG
modifications: thiocarboxylated C-terminal tail
Kd: 360 ± 47 nM
